Values belong to the substance of their own block, whether it stands above or below them.
How the values were obtained:
[1] = molecular target: His-tagged IDO1 human recombinant protein (71182, BPS Biosciences) (human) (UniProt P14902); assay: sandwich ELISA: biotinylated macrocycle on NeutrAvidin plate, His-tagged IDO1 titrated, anti-6XHis-AP detection
[2] = molecular target: murine IDO1 protein (mouse) (UniProt P28776); assay: ELISA, immobilized macrocycle, mouse IDO1 titrated
[3] = molecular target: His-tagged IDO1 human recombinant protein (71182, BPS Biosciences) (human) (UniProt P14902); assay: ELISA, immobilized macrocycle, human IDO1 titrated
[4] = molecular target: His-tagged IDO1 human recombinant protein (71182, BPS Biosciences) (human) (UniProt P14902); assay: ELISA: biotin-PEG3 macrocycle on NeutrAvidin plate, His-tagged human IDO1 titrated, AP-conjugated anti-6XHis antibody, fluorescence
[5] = molecular target: His-tagged IDO1 human recombinant protein (71182, BPS Biosciences) (human) (UniProt P14902); assay: cell-based or functional assay
[6] = molecular target: His-tagged IDO1 human recombinant protein (71182, BPS Biosciences) (human) (UniProt P14902); assay: sandwich ELISA: 200 nM biotinylated macrocycle immobilized on NeutrAvidin plate, His-tagged IDO1 titrated, anti-6XHis-AP detection
[7] = molecular target: His-tagged IDO1 human recombinant protein (71182, BPS Biosciences) (human) (UniProt P14902); assay: ELISA: biotinylated peptide on NeutrAvidin plate, 6xHis-tagged human IDO1 titrated
[8] = molecular target: His-tagged IDO1 human recombinant protein (71182, BPS Biosciences) (human) (UniProt P14902); assay: binding analysis, method not named

Chain of murine IDO1 protein (mouse) (P28776 2-406 limits assumed): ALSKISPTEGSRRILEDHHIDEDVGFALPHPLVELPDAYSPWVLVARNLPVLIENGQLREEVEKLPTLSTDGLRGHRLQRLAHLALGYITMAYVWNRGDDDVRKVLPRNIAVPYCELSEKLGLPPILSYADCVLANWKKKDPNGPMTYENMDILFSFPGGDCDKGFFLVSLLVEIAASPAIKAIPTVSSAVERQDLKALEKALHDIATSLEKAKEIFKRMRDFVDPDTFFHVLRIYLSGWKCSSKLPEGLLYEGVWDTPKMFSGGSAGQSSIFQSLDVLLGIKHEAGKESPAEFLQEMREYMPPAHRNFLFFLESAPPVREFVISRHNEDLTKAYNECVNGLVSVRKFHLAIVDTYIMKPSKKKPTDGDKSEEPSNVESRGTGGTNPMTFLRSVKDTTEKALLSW
Chain of His-tagged IDO1 human recombinant protein (71182, BPS Biosciences) (human) (P14902 2-403 limits assumed): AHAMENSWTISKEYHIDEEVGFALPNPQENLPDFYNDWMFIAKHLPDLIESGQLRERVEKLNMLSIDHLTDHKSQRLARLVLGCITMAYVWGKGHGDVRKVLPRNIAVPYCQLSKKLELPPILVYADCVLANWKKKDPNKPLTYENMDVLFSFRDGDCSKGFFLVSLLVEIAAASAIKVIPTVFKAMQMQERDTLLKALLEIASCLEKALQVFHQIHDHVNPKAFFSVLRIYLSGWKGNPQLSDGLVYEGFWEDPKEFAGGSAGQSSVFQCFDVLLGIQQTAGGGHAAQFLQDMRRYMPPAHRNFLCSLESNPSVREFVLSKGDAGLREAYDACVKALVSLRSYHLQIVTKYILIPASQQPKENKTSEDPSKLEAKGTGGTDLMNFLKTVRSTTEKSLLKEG

Substance: biotin-PEG3-Cy(nlw(Me-Trp)r) (peptide)
EC50 [1]: 43 nM | EC50 [2]: 48 nM | EC50 [3]: 51 nM

Substance: spwwa (peptide)
EC50 [4]: 111 nM

Substance: biotin-PEG3-Cy(rys(Me-Trp)r) (peptide)
EC50 [2]: 17 nM | IC50, IDO1 Fluorogenic Inhibitor Screening Assay (enzyme inhibition) [5]: > 40000 nM | EC50 [6]: 81 nM | EC50 [3]: 91 nM

Substance: biotin-PEG3-Cy(frf(Me-Trp)s) (peptide)
EC50 [1]: 20 nM | EC50 [2]: 36 nM | IC50, IDO1 Fluorogenic Inhibitor Screening Assay (enzyme inhibition) [5]: > 40000 nM | EC50 [3]: 18 nM | EC50 [7]: 20 nM

Substance: nla(Me-Trp)(F-Phe) (peptide)
EC50 [4]: 116 nM

Substance: spww (peptide)
EC50 [4]: 144 nM

Substance: biotin-PEG3-Cy(nlf(Me-Trp)(F-Phe)) (peptide)
EC50 [1]: 20 nM | EC50 [2]: 89 nM | EC50 [8]: 44 nM | EC50 [3]: 19 nM

Substance: n-f(Me-Trp)(F-Phe) (peptide)
EC50 [4]: 128 nM

Substance: biotin-PEG3-Cy(spww(F-Phe)) (peptide)
EC50 [1]: 65 nM | EC50 [2]: 44 nM | IC50, IDO1 Fluorogenic Inhibitor Screening Assay (enzyme inhibition) [5]: > 40000 nM | EC50 [3]: 85 nM

Substance: Biotin-PEG3-Cy(spaw(F-Phe)) (peptide)
EC50 [4]: 111 nM

Substance: biotin-PEG3-Cy(nsh(F-Phe)r) (peptide)
EC50 [1]: 68 nM

Substance: fra(Me-Trp)s (peptide)
EC50 [4]: 107 nM

Substance: biotin-PEG3-Cy(nsfr(Me-Trp)) (peptide)
EC50 [1]: 124 nM | EC50 [7]: 124 nM

More lines, in order of falling EC50 [4], values ahead:

EC50 [4]: 106 nM
Substance: apww(F-Phe) (peptide)

EC50 [4]: 104 nM
Substance: nlf(Me-Trp)a (peptide)

EC50 [4]: 104 nM
Substance: pww(F-Phe) (peptide)

EC50 [4]: 82 nM
Substance: naf(Me-Trp)(F-Phe) (peptide)

EC50 [4]: 79 nM
Substance: Biotin-PEG3-Cy(arf(Me-Trp)s) (peptide)

EC50 [4]: 70 nM
Substance: Biotin-PEG3-Cy(sww(F-Phe)) (peptide)

EC50 [4]: 69 nM
Substance: nlfa(F-Phe) (peptide)

EC50 [4]: 57 nM
Substance: Biotin-PEG3-Cy(frf(Me-Trp)a) (peptide)

EC50 [4]: 50 nM
Substance: alf(Me-Trp)(F-Phe) (peptide)

EC50 [4]: 45 nM
Substance: nlf(Me-Trp) (peptide)

EC50 [4]: 42 nM
Substance: Biotin-PEG3-Cy(saww(F-Phe)) (peptide)

EC50 [4]: 39 nM
Substance: Biotin-PEG3-Cy(lf(Me-Trp)(F-Phe)) (peptide)

EC50 [4]: 12 nM
Substance: Biotin-PEG3-Cy(frf(Me-Trp)) (peptide)
